Experimental data as given in article PMC6062497.
“And” between values parts separate entries of the source, which are not always exact repeats. Equal values may be shown once.

Molecular target: TRAIL receptors on SK-Mel-3 cells
Details: ligand

- Kd: 4.82 nM and 2.32 nM
Substance: GpL-FLAG-TNC-TRAIL (from UniProt P10039)
